Test results reported in patent publication US20140213772A1 (AbbVie / Abbott, published 2014).

Columns and labels:
TNF [1] = target: T1, TNF (UniProt P01375 77-233); test: ELISA
TNF [2] = target: T1, TNF; test: cell-based or functional assay
IL-1B [3] = target: T2, IL-1B (UniProt P01584 117-269); test: SPR (Biacore)
IL-17 [4] = target: T3, IL-17 (UniProt Q16552 24-155); test: SPR (Biacore)
IL-1B [5] = target: T2, IL-1B; test: cell-based or functional assay
IL-17 [6] = target: T3, IL-17; test: cell-based or functional assay
IL-17 [7] = target: T3, IL-17; test: ELISA
IL-17 [8] = target: T3, IL-17; test: cell-based or functional assay; remark: listed apart in the source

T3 sequence (Q16552 24-155 limits assumed): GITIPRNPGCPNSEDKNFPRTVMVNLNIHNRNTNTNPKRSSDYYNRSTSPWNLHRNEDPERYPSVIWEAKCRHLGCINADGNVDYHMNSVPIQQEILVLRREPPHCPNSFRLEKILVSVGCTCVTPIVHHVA
T1 sequence (P01375 77-233 limits assumed): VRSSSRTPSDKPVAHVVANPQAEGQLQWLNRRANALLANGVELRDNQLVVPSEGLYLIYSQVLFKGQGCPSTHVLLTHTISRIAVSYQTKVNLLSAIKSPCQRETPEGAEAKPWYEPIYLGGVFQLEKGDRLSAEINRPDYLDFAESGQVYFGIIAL

Binder	EC50 (TNF [1]) [nM]	Neutralization IC50 (pM), TNF (TNF [2]) [pM]	Kd (IL-1B [3]) [nM]	Kd (IL-17 [4]) [nM]	IL-1B neutralization IC50 (pM) (IL-1B [5])	IL-17 neutralization IC50 (pM) (IL-17 [6])	EC50 (IL-17 [7]) [nM]	Neutralization IC50 (pM), IL-17 (IL-17 [8]) [pM]
AB441 (antibody, V domains shown) VH: EVQLVQSGAEVKKPGASVKVSCKASGYTFANYGIIWVRQAPGQGLEWMGWINTYTGKPTYAQKFQGRVTMTTDTSTSTAYMELSSLRSEDTAVYYCARKLFTTMDVTDNAMDYWGQGTTVTVSS VL: DIQMTQSPSSLSASVGDRVTITCRASQDISQYLNWYQQKPGKAPKLLIYYTSRLQSGVPSRFSGSGSGTDFTLTISSLQPEDFATYFCQQGNTWPPTFGQGTKLEIKR	0.398	6						
AB274 (antibody, V domains shown) VH: EVQLVQSGAEVKKPGSSVKVSCKASGGSFGGYGIGWVRQAPGQGLEWMGGITPFFGFADYAQKFQGRVTITADESTTTAYMELSGLTSDDTAVYYCARDPNEFWNGYYSTHDFDSWGQGTTVTVSS VL: EIVLTQSPDFQSVTPKEKVTITCRASQDIGSELHWYQQKPDQPPKLLIKYASHSTSGVPSRFSGSGSGTDFTLTINGLEAEDAGTYYCHQTDSLPYTFGPGTKVDIKR							0.203	10
CODH12 (bispecific antibody) chain 1: EVQLVESGGGVVQPGRSLRLSCSASGFIFSRYDMSWVRQAPGKGLEWVAYISHGGAGTYYPDSVKGRFTISRDNSKNTLFLQMDSLRPEDTGVYFCARGGVTKGYFDVWGQGTPVTVSSGGGGSGGGEIVLTQSPDFQSVTPKEKVTITCRASQNIGSELHWYQQKPDQSPKLLIKYASHSISGVPSRFSGSGSGTDFTLTINGLEAEDAATYYCHQSDTLPHTFGQGTKVDIKGGSGG chain 2: EVQLVQSGAEVKKPGESVKISCKASGGSFRSYGISWVRQAPGQGLEWMGGITHFFGITDYAQKFQGRVTITADESTTTAYMELSGLTSDDTAVYYCAREPNDFWGGYYDTHDFDSWGQGTTVTVSSGGGGSGGGDIQMTQSPSSLSASVGDRVTITCRASGNIHNYLTWYQQTPGKAPKLLIYNAKTLADGVPSRFSGSGSGTDYTFTISSLQPEDIATYYCQHFWSIPYTFGQGTKLQITGGGR			800		2040	220		
CODH15 (bispecific antibody) chain 1: EIVLTQSPDFQSVTPKEKVTITCRASQNIGSELHWYQQKPDQSPKLLIKYASHSISGVPSRFSGSGSGTDFTLTINGLEAEDAATYYCHQSDTLPHTFGQGTKVDIKGGGGGGGDIQMTQSPSSLSASVGDRVTITCRASGNIHNYLTWYQQTPGKAPKLLIYNAKTLADGVPSRFSGSGSGTDYTFTISSLQPEDIATYYCQHFWSIPYTFGQGTKLQITGGGGG chain 2: EVQLVESGGGVVQPGRSLRLSCSASGFIFSRYDMSWVRQAPGKGLEWVAYISHGGAGTYYPDSVKGRFTISRDNSKNTLFLQMDSLRPEDTGVYFCARGGVTKGYFDVWGQGTPVTVSSGEVQLVQSGAEVKKPGESVKISCKASGGSFRSYGISWVRQAPGQGLEWMGGITHFFGITDYAQKFQGRVTITADESTTTAYMELSGLTSDDTAVYYCAREPNDFWGGYYDTHDFDSWGQGTTVTVSSGGR			390		1660	7.4		
CODH1 (bispecific antibody) chain 1: EVQLQESGPGLVKPSETLSLTCTVSGFSLSDYGVSWIRQPPGKGLEWLGLIWGGGDTYYNSPLKSRLTISKDNSKSQVSLKLSSVTAADTAVYYCAKQRTLWGYDLYGMDYWGQGTLVTVSSGEVQLVQSGAEVKKPGESVKISCKASGGSFRSYGISWVRQAPGQGLEWMGGITHFFGITDYAQKFQGRVTITADESTTTAYMELSGLTSDDTAVYYCAREPNDFWGGYYDTHDFDSWGQGTTVTVSSGG chain 2: EIVLTQSPDFQSVTPKEKVTITCRASQNIGSELHWYQQKPDQSPKLLIKYASHSISGVPSRFSGSGSGTDFTLTINGLEAEDAATYYCHQSDTLPHTFGQGTKVDIKGGGGGGGDTQVTQSPSSLSASVGDRVTITCITSTDIDVDMNWYQQKPGKPPKLLISQGNTLRPGVPSRFSSSGSGTDFTFTISSLQPEDFATYYCLQSDNLPLTFGQGTKLEIKGGGGGR			0.19	< 0.0001	1300	30		
AB461 (antibody, V domains shown, Benchmark anti-IL-17 mAb; also called B6-5G) VH: EVQLVQSGAEVKKPGESVKISCKASGGSFRSYGISWVRQAPGQGLEWMGGITHFFGITDYAQKFQGRVTITADESTTTAYMELSGLTSDDTAVYYCAREPNDFWGGYYDTHDFDSWGQGTTVTVSS VL: EIVLTQSPDFQSVTPKEKVTITCRASQNIGSELHWYQQKPDQSPKLLIKYASHSISGVPSRFSGSGSGTDFTLTINGLEAEDAATYYCHQSDTLPHTFGQGTKVDIK				0.0009		2		

Other lines, results leading:

EC50 (TNF [1]) [nM]	Neutralization IC50 (pM), TNF (TNF [2]) [pM]	Kd (IL-1B [3]) [nM]	Kd (IL-17 [4]) [nM]	IL-1B neutralization IC50 (pM) (IL-1B [5])	IL-17 neutralization IC50 (pM) (IL-17 [6])	EC50 (IL-17 [7]) [nM]	Neutralization IC50 (pM), IL-17 (IL-17 [8]) [pM]	Binder
		0.13	< 0.0002	1160	12			CODH3 (bispecific antibody) chain 1: EVQLVESGGGVVQPGRSLRLSCSASGFIFSRYDMSWVRQAPGKGLEWVAYISHGGAGTYYPDSVKGRFTISRDNSKNTLFLQMDSLRPEDTGVYFCARGGVTKGYFDVWGQGTPVTVSSGEVQLVQSGAEVKKPGESVKISCKASGGSFRSYGISWVRQAPGQGLEWMGGITHFFGITDYAQKFQGRVTITADESTTTAYMELSGLTSDDTAVYYCAREPNDFWGGYYDTHDFDSWGQGTTVTVSSGG chain 2: EIVLTQSPDFQSVTPKEKVTITCRASQNIGSELHWYQQKPDQSPKLLIKYASHSISGVPSRFSGSGSGTDFTLTINGLEAEDAATYYCHQSDTLPHTFGQGTKVDIKGGGGGGGDIQMTQSPSSLSASVGDRVTITCRASGNIHNYLTWYQQTPGKAPKLLIYNAKTLADGVPSRFSGSGSGTDYTFTISSLQPEDIATYYCQHFWSIPYTFGQGTKLQITGGGGGR
		0.089		245				AB270 (antibody, V domains shown, Benchmark anti-IL-1B mAb; also called 1B12.1; 1B12-1) VH: EVQLQESGPGLVKPSETLSLTCTVSGFSLSDYGVSWIRQPPGKGLEWLGLIWGGGDTYYNSPLKSRLTISKDNSKSQVSLKLSSVTAADTAVYYCAKQRTLWGYDLYGMDYWGQGTLVTVSS VL: DTQVTQSPSSLSASVGDRVTITCITSTDIDVDMNWYQQKPGKPPKLLISQGNTLRPGVPSRFSSSGSGTDFTFTISSLQPEDFATYYCLQSDNLPLTFGQGTKLEIK
		0.11		113	4			CODH4 (bispecific antibody) chain 1: EVQLVQSGAEVKKPGESVKISCKASGGSFRSYGISWVRQAPGQGLEWMGGITHFFGITDYAQKFQGRVTITADESTTTAYMELSGLTSDDTAVYYCAREPNDFWGGYYDTHDFDSWGQGTTVTVSSGEVQLVESGGGVVQPGRSLRLSCSASGFIFSRYDMSWVRQAPGKGLEWVAYISHGGAGTYYPDSVKGRFTISRDNSKNTLFLQMDSLRPEDTGVYFCARGGVTKGYFDVWGQGTPVTVSSGG chain 2: DIQMTQSPSSLSASVGDRVTITCRASGNIHNYLTWYQQTPGKAPKLLIYNAKTLADGVPSRFSGSGSGTDYTFTISSLQPEDIATYYCQHFWSIPYTFGQGTKLQITGGGGGGGEIVLTQSPDFQSVTPKEKVTITCRASQNIGSELHWYQQKPDQSPKLLIKYASHSISGVPSRFSGSGSGTDFTLTINGLEAEDAATYYCHQSDTLPHTFGQGTKVDIKGGGGGR
		0.17	0.0004	1600	29			CODH2 (bispecific antibody) chain 1: EVQLVQSGAEVKKPGESVKISCKASGGSFRSYGISWVRQAPGQGLEWMGGITHFFGITDYAQKFQGRVTITADESTTTAYMELSGLTSDDTAVYYCAREPNDFWGGYYDTHDFDSWGQGTTVTVSSGEVQLQESGPGLVKPSETLSLTCTVSGFSLSDYGVSWIRQPPGKGLEWLGLIWGGGDTYYNSPLKSRLTISKDNSKSQVSLKLSSVTAADTAVYYCAKQRTLWGYDLYGMDYWGQGTLVTVSSGG chain 2: DTQVTQSPSSLSASVGDRVTITCITSTDIDVDMNWYQQKPGKPPKLLISQGNTLRPGVPSRFSSSGSGTDFTFTISSLQPEDFATYYCLQSDNLPLTFGQGTKLEIKGGGGGGGEIVLTQSPDFQSVTPKEKVTITCRASQNIGSELHWYQQKPDQSPKLLIKYASHSISGVPSRFSGSGSGTDFTLTINGLEAEDAATYYCHQSDTLPHTFGQGTKVDIKGGGGGR
